This assay has as its target maltose-binding protein (MBP)-tagged mVP35 IID (Marburg virus, UniProt P35259). Briefly: pull-down.

maltose-binding protein (MBP)-tagged mVP35 IID, sequence (P35259 200-329): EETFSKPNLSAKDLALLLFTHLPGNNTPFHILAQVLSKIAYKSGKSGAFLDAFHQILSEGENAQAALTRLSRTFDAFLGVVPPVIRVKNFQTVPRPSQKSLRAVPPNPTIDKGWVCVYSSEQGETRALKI

B1: synthetic antigen-binding fragment sFab H3 (Fab, V domains shown)
VH: EVQLVESGGGLVQPGGSLRLSCAASGFNISYYYIHWVRQAPGKGLEWVASIYPYYGYTSYADSVKGRFTISADTSKNTAYLQMNSLRAEDTAVYYCARGSSWYGAHAFDYWGQGTLVTVSS
VL: DIQMTQSPSSLSASVGDRVTITCRASQSVSSAVAWYQQKPGKAPKLLIYSASSLYSGVPSRFSGSRSGTDFTLTISSLQPEDFATYYCQQGYYYAYSLITFGQGTKVEIK
As to B1, the binding result is on record as “binds”.

The values above are taken from article PMC6827488 (ACS infectious diseases, 2019).
